Here are results for two molecules from patent US7625734B2, “Glutamine:fructose-6-phosphate amidotransferase (GFAT) comprising an internal purification marker and use thereof for the screening of compounds” (Centre National de la Recherche Scientifique (CNRS), priority 2003, dated 2009).

Where two headings read alike, the source gives them in different places.

The target in data set [1] is T1, GFAT activity (Homo sapiens, UniProt Q06210, INS317HHHHHH).
T1 construct: made in house; host or cells: Sf9 insect cells (recombinant baculovirus)
T1 sequence (Q06210 with tags, fused parts or gaps isoform Q06210-2 INS299HHHHHH): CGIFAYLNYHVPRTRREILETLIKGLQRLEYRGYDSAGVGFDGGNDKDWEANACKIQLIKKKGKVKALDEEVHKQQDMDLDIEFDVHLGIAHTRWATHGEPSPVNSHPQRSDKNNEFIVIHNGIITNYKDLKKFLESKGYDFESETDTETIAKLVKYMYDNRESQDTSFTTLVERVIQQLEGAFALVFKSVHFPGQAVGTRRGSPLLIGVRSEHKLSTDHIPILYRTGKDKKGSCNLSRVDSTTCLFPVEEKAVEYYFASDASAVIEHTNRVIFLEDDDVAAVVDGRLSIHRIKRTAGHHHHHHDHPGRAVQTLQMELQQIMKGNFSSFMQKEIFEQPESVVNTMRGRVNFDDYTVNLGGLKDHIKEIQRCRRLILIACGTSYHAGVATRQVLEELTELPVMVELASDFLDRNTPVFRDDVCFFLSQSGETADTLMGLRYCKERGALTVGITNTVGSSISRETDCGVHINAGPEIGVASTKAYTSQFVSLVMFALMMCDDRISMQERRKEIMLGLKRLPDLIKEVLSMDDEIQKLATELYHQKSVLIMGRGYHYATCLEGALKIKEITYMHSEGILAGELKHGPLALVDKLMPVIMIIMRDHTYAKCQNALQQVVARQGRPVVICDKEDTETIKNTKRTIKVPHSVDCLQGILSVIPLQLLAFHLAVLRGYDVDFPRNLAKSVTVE
In words: Morgan-Elson assay of GFAT1-His6 enzyme activity. The class given is biochemical. The note with it: 30 minutes at 37° C.; D-glucosamine standard curve. Here is the method: In this case the enzyme activity is monitored by a colorimetric test the principle of which is the following: the D-glucosamine-6P released by the enzyme is N-acetylated by acetic anhydride in alkaline medium (Ghosh et al., Method. Enzymol. (1962) 5:414), then the solution is treated with Ehrlich's reagent (para-dimethyl-amino-benzaldehyde, PDAB) in concentrated acid medium; the pink compound formed absorbs at 585 nm.
The enzymatic reaction takes place over 30 minutes at 37° C. in the presence of: • 0.2 ml of 100 mM fructose-6P • 0.25 ml of 60 mM L-Glutamine • 0.25 ml of 150 mM KPO4 buffer, pH 7 • 0.1 ml of 25 mM EDTA (ethylene diamine tetra-acetate), pH 7 • up to 200 μl of sample (to be completed with H2O if necessary)
The reaction is stopped by immersion for 4 minutes in a water bath at 100° C. then centrifuged. […]
The activity of the GFAT was determined by comparison with a standard curve established using D-glucosamine as standard in a concentration range of 0 to 200 nmoles. The specific activity of the GFAT1-His6 obtained was thus measured at 1.7 U/mg. […]

Data set [2] addresses T1, GFAT activity. Put plainly: APAD assay (spectrophotometric assay coupled with glutamate dehydrogenase). It is filed as biochemical. Here is the method:
The kinetic parameters of GFAT1-His6 have been characterized vis-à-vis glutamine (Km^Gln=0.2 mM) and fructose-6P (F6P) (Km^F6P=0.006 mM) by a spectrophotometric assay coupled with glutamate dehydrogenase according to the APAD test. This is in accordance with the values cited in the prior art (Km^Gln=0.26 mM and Km^F6P=0.007 mM for Broschat et al., J. Biol. Chem. (2002) 277:14764).
This is an ultraviolet spectrophotometric assay of the GFAT activity. It is based on the continuous determination of the quantity of L-glutamate formed using GFAT and an analogue of NAD (nicotinamide adenine dinucleotide), APAD (3-acetylpyridine adenine dinucleotide), according to the following reaction (catalyzed by glutamate dehydrogenase (GDH)):
The measurement is carried out at 365 nm, at 37° C. Under these conditions an absorbance unit corresponds to 0.11 μmole of APADH formed.
The test comprises: • 100 μl 3 mM APAD (2 mg/ml) • 25 μl 2M KCl • 100 μl of 1 M KPO4 buffer, pH 7.2 • 100 μl of 100 mM Fructose-6P (30.41 mg/ml) • 100 μl of 60 mM purified L-Glutamine (8.77 mg/ml) • H2O qsf 1 ml (taking into account the volumes to be added hereafter) • 50 μl GDH • sample to be assayed: 0.5 μg

The test system of data set [3] is GFAT activity. The following applies: value obtained by Broschat et al., J. Biol. Chem. (2002) 277:14764; cited from earlier work.

B1: GFAT1-His6: human GFAT1 (SEQ ID NO: 2) in which a hexa-histidine purification tag is inserted between amino acids 299 and 300 (protein, UniProt Q06210 2-699, looked up)
Glutamine--fructose-6-phosphat …: CGIFAYLNYHVPRTRREILETLIKGLQRLEYRGYDSAGVGFDGGNDKDWEANACKIQLIKKKGKVKALDEEVHKQQDMDLDIEFDVHLGIAHTRWATHGEPSPVNSHPQRSDKNNEFIVIHNGIITNYKDLKKFLESKGYDFESETDTETIAKLVKYMYDNRESQDTSFTTLVERVIQQLEGAFALVFKSVHFPGQAVGTRRGSPLLIGVRSEHKLSTDHIPILYRTARTQIGSKFTRWGSQGERGKDKKGSCNLSRVDSTTCLFPVEEKAVEYYFASDASAVIEHTNRVIFLEDDDVAAVVDGRLSIHRIKRTAGDHPGRAVQTLQMELQQIMKGNFSSFMQKEIFEQPESVVNTMRGRVNFDDYTVNLGGLKDHIKEIQRCRRLILIACGTSYHAGVATRQVLEELTELPVMVELASDFLDRNTPVFRDDVCFFLSQSGETADTLMGLRYCKERGALTVGITNTVGSSISRETDCGVHINAGPEIGVASTKAYTSQFVSLVMFALMMCDDRISMQERRKEIMLGLKRLPDLIKEVLSMDDEIQKLATELYHQKSVLIMGRGYHYATCLEGALKIKEITYMHSEGILAGELKHGPLALVDKLMPVIMIIMRDHTYAKCQNALQQVVARQGRPVVICDKEDTETIKNTKRTIKVPHSVDCLQGILSVIPLQLLAFHLAVLRGYDVDFPRNLAKSVTVE
modifications: internal His6 tag
Turning to B1, the specific activity in the data set with GFAT activity [1] is 1.7 U/mg. In addition, the Km with GFAT activity [2] (vis-à-vis fructose-6P, read-out: Km F6P) stood at 6 µM; in the data set with GFAT activity [2] (vis-à-vis glutamine, read-out: Km Gln), 200 µM.

B2: recombinant human GFAT1: recombinant human GFAT1 purified by Broschat et al., J. Biol. Chem. (2002) 277:14764 (protein, UniProt Q06210 2-699, looked up)
Glutamine--fructose-6-phosphat …: CGIFAYLNYHVPRTRREILETLIKGLQRLEYRGYDSAGVGFDGGNDKDWEANACKIQLIKKKGKVKALDEEVHKQQDMDLDIEFDVHLGIAHTRWATHGEPSPVNSHPQRSDKNNEFIVIHNGIITNYKDLKKFLESKGYDFESETDTETIAKLVKYMYDNRESQDTSFTTLVERVIQQLEGAFALVFKSVHFPGQAVGTRRGSPLLIGVRSEHKLSTDHIPILYRTARTQIGSKFTRWGSQGERGKDKKGSCNLSRVDSTTCLFPVEEKAVEYYFASDASAVIEHTNRVIFLEDDDVAAVVDGRLSIHRIKRTAGDHPGRAVQTLQMELQQIMKGNFSSFMQKEIFEQPESVVNTMRGRVNFDDYTVNLGGLKDHIKEIQRCRRLILIACGTSYHAGVATRQVLEELTELPVMVELASDFLDRNTPVFRDDVCFFLSQSGETADTLMGLRYCKERGALTVGITNTVGSSISRETDCGVHINAGPEIGVASTKAYTSQFVSLVMFALMMCDDRISMQERRKEIMLGLKRLPDLIKEVLSMDDEIQKLATELYHQKSVLIMGRGYHYATCLEGALKIKEITYMHSEGILAGELKHGPLALVDKLMPVIMIIMRDHTYAKCQNALQQVVARQGRPVVICDKEDTETIKNTKRTIKVPHSVDCLQGILSVIPLQLLAFHLAVLRGYDVDFPRNLAKSVTVE
Turning to B2, the specific activity with GFAT activity [3] was 0.4 U/mg.
